± gives the uncertainty stated by the source.
How the values were obtained:
[1] = amyloid nucleation score (Sup35N fusion, yeast selection) (log enrichment); library NNK1; higher = more nucleation; inactive = no reads after selection
Summary of the method: (§1)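 Peptides of 20 random codons, each fused to Sup35N, were expressed in psi-negative yeast. Cells were induced with 100 μM copper sulfate for 24 hours and grown 7 days at 30°C on medium lacking adenine and uracil, and plasmid inserts before and after selection were Illumina-sequenced. Nucleation scores are DiMSum log enrichments of output over input reads, centred on the mode score of non-aggregating sequences, and sequences under 100 input reads were excluded.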

[2] = amyloid nucleation score (Sup35N fusion, yeast selection) (log enrichment); library NNK3; higher = more nucleation; inactive = no reads after selection
Summary of the method: as §1

[3] = amyloid nucleation score (Sup35N fusion, yeast selection) (log enrichment); library NNK2; higher = more nucleation; inactive = no reads after selection
Summary of the method: as §1

Substance | amyloid nucleation score [1] | further results
SHLCLAMVVRGV | 0.507 ± 0.56 | –
VVSYISPATLRTLKLEKGLS | 0.029 ± 0.76 | –
SYAFLCNGSSRGLIIAMVLT | -0.057 ± 0.29 | –
FSMGGYFLFLCNNFTLYHIS | 7.598 ± 0.07 | –
MFMSWVDFNLD | 0.066 ± 0.29 | –
KVFISCYLWYA | 3.8 ± 0.072 | –
GTVVG | 0.041 ± 0.54 | –
FGLTCRLHKAVFRFYNKRTS | inactive | –
NYSYVTWNLFGQSPICSLWY | 6.103 ± 0.049 | –
IETVLIVAY | 0.355 ± 0.53 | –
KVLITCCGPKWSCSLAPDEL | 0.668 ± 0.58 | –
NNTFQIVLRFSGRHIDFNRR | 7.639 ± 0.064 | –
SSYNLKYLWGCIC | 7.263 ± 0.048 | –
HYRYGGLAMFLVWIEMFLYW | 0.407 ± 1.1 | –
TYWGC | 0.186 ± 1 | –
IQRKSITTWSPH | 3.43 ± 0.2 | –
PYGIGIFNYLWATGMNLSQA | -0.071 ± 0.43 | –
CVVRVWVYRGGKYVYLEKAP | -1.48 ± 1.4 | –
DYDIWDAMPAQFQRITMYSV | -0.243 ± 0.36 | –
RTLGFLRCFIITSVDSTKNA | 0.514 ± 0.8 | –
EVCFCEGEVKFWGKGAIFSR | -1.88 ± 1.8 | –
WSIDVNTTACKFFFRCSSCN | 1.43 ± 0.74 | –
DYTLMRSLESPITDLQSSSG | 0.748 ± 0.88 | –
LLDLDVTLIRNHWWFKSLLA | -0.047 ± 0.41 | –
VNCLLDQQYR | 0.746 ± 0.46 | –
SIWVIRPAAGKSEGSISNVQ | 0.531 ± 0.5 | –

Substance | amyloid nucleation score [1] | further results
ALLWQECYMP | 2.26 ± 0.17 | –
SCFTTF | -1.54 ± 1.2 | –
VVPPRTDSE | -0.364 ± 0.46 | –
AFLRVIDQQLRLEIHIIMKL | inactive | –
QFLALVCFCIPRLVRLAGYE | -1.35 ± 1.1 | –
YILVYSSVTRRYHKSRSYVG | -0.09 ± 0.29 | –
FVVLSRFACRLRLTR | 0.853 ± 0.55 | –
CWQSGMCNRSRMQAVRVPHD | 0.698 ± 0.56 | –
HVTMKMIASSTMLDQHSWAR | -0.065 ± 0.32 | –
LSVGKKDS | -0.292 ± 0.23 | –
GDANLGKQLWRGWNVG | 0.228 ± 1.2 | –
SPKSLLKRLWEYARKNTVML | 0.151 ± 0.49 | –
SLSRLRHNSFWQRTFAMLVS | inactive | –
LRMKVINRNPWVKTLSFVLA | -0.297 ± 1.1 | –
GFVEVNTCLKEVSLPSNMPS | 0.714 ± 0.5 | –
LFFQSDMFGVFCISYTTGVS | 0.323 ± 0.32 | –
VKRRLSHYAHMDGFVCNIR | 0.286 ± 1.4 | –
SYLFVWFTSLLSDPQ | -0.716 ± 1.2 | –
INDSRFVAYTCLRVTEKYGL | 0.855 ± 0.22 | –
ILNTTHCHKHKKTCEHSACD | -0.883 ± 0.48 | –
CVFSVRYALDRWDPTKCEVG | 0.325 ± 0.43 | –
YEMSY | -1.38 ± 2.4 | –
CSHGNYHITCCPHAFFMTAI | 4.91 ± 0.098 | –
YPSCAGVWFKHNRLFFV | 0.096 ± 0.79 | –
CDNGPLLIVGVRHRTRACVT | 0.861 ± 0.38 | –
YASSYNKRCNNVMNVVW | -0.299 ± 0.25 | –

Substance | amyloid nucleation score [1] | further results
LCRVVGYRSPHWQVRGLSVV | -0.215 ± 1.7 | –
RCVIDDKLWGISLRGPMMGV | -1.48 ± 1.9 | –
TARWAKPVADNGCVNNTFLW | 2.15 ± 0.27 | –
VIHGC | -0.14 ± 0.27 | –
QSVWEYNGTFSLRYRDMTGY | 0.477 ± 0.65 | –
ENPWFMCICYGANRVHVCNG | 0.539 ± 0.33 | –
GGRLTRQRIVSVLLYVGVAG | 0.077 ± 0.69 | –
SYVVETQFSSHFSVLWDLMF | -1.49 ± 1.2 | –
FSYRSIWLRVLRV | -0.111 ± 0.4 | –
TRNMHKCCNTMTTLLSVLGS | -0.186 ± 0.75 | –
CILRRMDADFIFIVCVDCFG | -0.055 ± 0.4 | –
FYIVFFTCLASSS | 1.94 ± 0.29 | –
DAFIV | -0.684 ± 0.54 | –
CCRVISIWG | 0.115 ± 0.54 | –
ISWRNYWY | 1.01 ± 0.22 | –
LPPARIFEGRSICYFVWYLP | 0.232 ± 0.7 | –
RMYIHMYS | 1.32 ± 0.33 | –
QYHLWFMCAAVDRMKNGPFG | 0.049 ± 0.36 | –
LDIVWVDSVIVISLMMLTYC | 0.199 ± 0.39 | –
NVFLVRAYLMENVHFYDFMC | 4.54 ± 0.14 | –
CPRPYDRSALSRKLY | 0.713 ± 0.32 | –
IWTKSCDCVCSCGGYQGCYR | -0.038 ± 0.19 | –
NGANMLVCKRFVLVNLYGPA | 6.02 ± 0.063 | –
SQEHCMVNTK | 0.112 ± 0.59 | –
CKRLS | -0.216 ± 1.1 | –
ILYNA | -0.166 ± 1.2 | –

Substance | amyloid nucleation score [1] | further results
VTFFHFSQGR | 4.79 ± 0.057 | –
YGEHMLVDRCMRWVSSFYRG | 1.62 ± 0.3 | –
SCLPGPKRFL | 0.496 ± 1.2 | –
FFVVMVIDNKHPQQENSRIR | 1.74 ± 0.34 | –
SIMLADYPIHLVSNTPRMVL | 0.809 ± 0.82 | –
ILWLVMWVWTSRFVRCRRHS | -1.94 ± 2.4 | –
LQIYCAPGFV | 0.38 ± 1.2 | –
MPDYVSFTSRMPLRLKLLLS | inactive | –
LEDNMEFDFKSRKDSNLCNG | 0.611 ± 0.34 | –
MNRVDLCVNA | 0.438 ± 0.38 | –
WNNVSCIELSSVSWNPDEVG | -0.302 ± 0.3 | –
TSLNNGKSDFLYEARVLLEF | 0.541 ± 0.35 | –
DFTVA | 0.596 ± 0.78 | –
RGISYLV | -0.212 ± 0.68 | –
SRFHVKLRLYFGSNIARTSK | 6.618 ± 0.061 | –
LVHPQVSVGS | 0.632 ± 0.74 | –
WTAHSSL | 1.09 ± 0.76 | –
MYLFICVGSMVNQDVNEMMR | 3.84 ± 0.084 | –
SRVEWEDVYENVGGKGTSRE | -0.087 ± 0.44 | –
NIFVGLLTWLCVKLCMGMFV | -0.633 ± 0.94 | –
LFVVFHALTIFYP | -0.437 ± 1.2 | –
LINKNSSSAFCVMLGHYWVR | -1.03 ± 0.66 | –
LKYPMGFPDRSL | -0.658 ± 1.1 | –
LEYENCHCIILYLKHAQYLL | inactive | –
ILESRVPCCLKRGLNKEIGL | 0.672 ± 0.46 | –
SLKMEDFKKNSKMRMDFINH | 1.85 ± 0.19 | –

Substance | amyloid nucleation score [1] | further results
FQMNSCNWSVTGRIVFPDVY | 1.58 ± 0.42 | –
RFVCQPNRWFHNKRGVGRET | 0.653 ± 0.64 | –
LTLLR | – | amyloid nucleation score [2]: inactive; amyloid nucleation score [3]: -0.122 ± 0.42
RFMWLTLSSFQGLAEGLCTF | – | amyloid nucleation score [3]: -0.631 ± 0.76
LKPSSFVYIITDQFSNHIVM | – | amyloid nucleation score [3]: 5.84 ± 0.065
LSYTSDSRPAGF | – | amyloid nucleation score [3]: -0.347 ± 1.1
GICPWTRLALFCRSGNVYRG | – | amyloid nucleation score [3]: 1.34 ± 0.15
CNLSVVYLLDMAD | – | amyloid nucleation score [3]: 3.99 ± 0.044
NRVGSSGSRYALHRVSSS | – | amyloid nucleation score [3]: 4.846 ± 0.045
LLSKGLA | – | amyloid nucleation score [3]: -0.682 ± 0.32
TVRMIMLANLIQSYWHTIVS | – | amyloid nucleation score [3]: -0.153 ± 0.65
MPGMVTSCTVFCNQFKMETC | – | amyloid nucleation score [3]: 6.457 ± 0.061
ILYGGSPSLYVYAYTKN | – | amyloid nucleation score [3]: 4.35 ± 0.11
AYRLGFNVMLTDAVVARDIL | – | amyloid nucleation score [3]: 0.512 ± 0.66
GWVVRRINAVVFVASGSI | – | amyloid nucleation score [3]: 5.601 ± 0.048
VGILSRWLRGRFTVTRWLWC | – | amyloid nucleation score [3]: -0.945 ± 1.1
TCSSPTMKSYMNHCLHVDSF | – | amyloid nucleation score [3]: 0.516 ± 0.47
VVRRYICRVLRMFWYWVVRE | – | amyloid nucleation score [3]: -0.145 ± 0.76
RSSLEKIMIGNFNYVRVKLH | – | amyloid nucleation score [3]: 2.28 ± 0.18
AMSECQHKMQWAAFSVFPGQ | – | amyloid nucleation score [3]: 5.91 ± 0.089
SRCVCMFTEIPATAFPMKVR | – | amyloid nucleation score [3]: -0.94 ± 0.64
RFSLSMDLLNPYST | – | amyloid nucleation score [3]: 4.15 ± 0.13
GHIQLRTVYGV | – | amyloid nucleation score [3]: 1.2 ± 0.68

— the supplement of paper PMC12042874
